Source: paper PMC3526301

Legend:
[1] = target: T1, human alpha-thrombin (Homo sapiens) (UniProt P00734+P00734); assay: bead-based fluorescence binding; settings: 50 mM Tris, 100 mM NaCl, 1 mM MgCl2, 5 mM KCl, 1 mM CaCl2, 0.01% Tween 20, pH 7.5 (selection buffer), 1 h room temperature …
[2] = target: T1, human alpha-thrombin (Homo sapiens); assay: fibrin formation inhibition (OD350); settings: 50 mM Tris, 100 mM NaCl, 1 mM MgCl2, 5 mM KCl, 1 mM CaCl2, 0.01% Tween 20, pH 7.5 (selection buffer), 1 h room temperature …

AGTCCGTGGTAGGGCAGGTTGGGGTGACT [Tasset-29]
fold affinity loss vs TBV-08 (fold lower affinity than TBV-08) [1]: 200

GGTTGGTGTGGTTGG [Bock-15]
Ki [2]: 2.61 nM
fold affinity loss vs TBV-08 (fold lower affinity than TBV-08) [1]: 300
